Experimental data as given in patent publication US20090208473A1 (RUTGERS THE STATE UNIVERSITY OF NEW JERSEY, published 2009).

How the values were obtained:
[1] = biological target: the molecule itself; assay: oligomerization; Western blot without DTT of GFP-MG53 mutants from C2C12 cells
Text: These mutant constructs were transiently expressed in C2C12 myoblast cells (FIG. 22).

For “MBP-MG53 (recombinant maltose-binding protein fusion protein for MG53)”, the “auto-ubiquitination in vitro (high molecular-mass ladders, anti-MBP immunoblot)” value (UbCH5) was “High molecular-mass ladders derived from ubiquitination were observed when MBP-MG53 was incubated with Ubc4 or UbCH5 as E2” and the “auto-ubiquitination in vitro (high molecular-mass ladders, anti-MBP immunoblot)” value (Ubc4) was “High molecular-mass ladders derived from ubiquitination were observed when MBP-MG53 was incubated with Ubc4 or UbCH5 as E2”.

B1: GFP-MG53 C242A mutant (other, mouse, UniProt Q1XH17 1-477, looked up)
chain: MSAAPGLLRQELSCPLCLQLFDAPVTAECGHSFCRACLIRVAGEPAADGTVACPCCQAPTRPQALSTNLQLSRLVEGLAQVPQGHCEEHLDPLSIYCEQDRTLVCGVCASLGSHRGHRLLPAAEAQARLKTQLPQQKMQLQEACMRKEKTVAVLEHQLVEVEETVRQFRGAVGEQLGKMRMFLAALESSLDREAERVRGDAGVALRRELSSLNSYLEQLRQMEKVLEEVADKPQTEFLMKFALVTSRLQKILSESPPPARLDIQLPVISDDFKFQVWKKMFRALMPALEELTFDPSSAHPSLVVSSSGRRVECSDQKAPPAGEDTRQFDKAVAVVAQQLLSQGEHYWEVEVGDKPRWALGVMAADASRRGRLHAVPSQGLWLLGLRDGKILEAHVEAKEPRALRTPERPPARIGLYLSFADGVLAFYDASNPDVLTPIFSFHERLPGPVYPIFDVCWHDKGKNAQPLLLVGPEQEQA
notes: the plasmid methods describe mouse MG53 cDNA; also called GFP-C242A; not shown: GFP at the N-terminus
B1: no binding [1].
